Assay results: patent publication US20230340111A1 (published 2023)
Where a chain is given by its changes, count along the chain named. Each block holds one binder with its values, some of them ahead of it.

How the values were obtained:
[1] = target: human FOLR1 recombinant protein (extracellular domain of human folate receptor alpha) (human) (UniProt P15328); test: ELISA; coated recombinant protein, HA-tagged VHH in bacterial extract, anti-HA detection; A405 antigen well / blank well
[2] = target: T1, human folate receptor beta (FOLR2), extracellular domain, recombinant (human, UniProt P14207 17-228, limits assumed); test: ELISA, coated recombinant protein, HA-tagged VHH in bacterial extract
T1 construct: extracellular domain; Bought protein; also called human FOLR2
Procedure: (§1) The day before, 0.1 µg recombinant protein at a concentration of 1 µg/mL in 100 mM NaHCO3, pH 8.2 was coated in a 96-well ELISA plate (Nunc MaxiSorp). Per VHH clone also a blank coated well was foreseen (only buffer). The wells were overcoated with protein-free T20 (PBS) blocking buffer (Pierce). After washing with PBS, pH7.4, 0.05% Tween, VHH-containing bacterial extract was added to every well. Binding of HA-tagged VHHs was detected by using mouse anti-HA.11 epitope tag (clone 16B12, Biolegend) as the primary Ab and goat anti-mouse IgG (whole molecule) alkaline phosphatase conjugate (Sigma-Aldrich) as the secondary Ab, with thorough washing with PBS, pH 7.4, 0.05% Tween in between. Signals were developed using phosphatase substrate (Sigma-Aldrich) in AP blot buffer (100 mM NaCl, 50 mM MgCl2, 100 mM Tris, pH 9.5). The absorbance was determined at 405 nm using an absorbance microplate reader (Molecular Devices). Per clone the ratio was determined between the absorbance in the antigen-coated well versus the well without antigen.

[3] = target: T2, human folate receptor gamma (FOLR3), recombinant (human, UniProt P41439 23-245, limits assumed); test: as above
T2 construct: extracellular domain; Bought protein; also called human FOLR3
Procedure: as §1

[4] = target: T1, human folate receptor beta (FOLR2), …; test: ELISA; coated recombinant protein, HA-tagged VHH in bacterial extract, anti-HA detection; A405 antigen well / blank well
Procedure: as §1

[5] = target: T2, human folate receptor gamma (FOLR3), …; test: as above
Procedure: as §1

[6] = target: T3, human FOLR1 recombinant protein (extracellular domain of human folate receptor alpha) (human, UniProt P15328 25-233); test: SPR dual injection on immobilized human FOLR1, 250 nM; competitor (1st VHH, saturating) A5; by the legend the value is of the 2nd VHH
T3 construct: Bought recombinant protein (Sino Biological); also called hFOLR1; FR-alpha
Procedure: (§2) Competitive binding characteristics of His₆-tagged VHHs were determined via surface plasmon resonance with a Biacore T200 instrument (GE Healthcare). Immobilization of human FOLR1 recombinant protein (Sino Biological) and regeneration were performed as described below for kinetic measurements.
(§3) Table 8: Side-by-side comparison of His₆-tagged VHHs A1, A2, A3, A4, A5 for binding to human FOLR1 to identify competitive binding characteristics. Binding was measured in surface plasmon resonance with immobilized human FOLR1 recombinant protein as the ligand. After saturation of the ligand with VHH 1 an equimolar mixture of VHH 1 and VHH 2 was injected. Percentages express the loss in response level of VHH 2, relative to the response when VHH 2 was injected alone.

[7] = target: T3, human FOLR1 recombinant protein …; test: SPR (Biacore T200), single cycle kinetics, His6-tagged VHH immobilized on CM5, human FOLR1 as analyte, 1:1 fit
Procedure: The kinetic parameters of antigen binding for purified VHHs A1, A2 and A3 were determined via surface plasmon resonance with a Biacore T200 instrument (GE Healthcare) using single cycle kinetics mode. While example 4d provides a first and preferred way of assessing the kinetic parameters of antigen binding for VHHs using surface plasmon resonance, this example provides an alternative setup for using surface plasmon resonance to assess the kinetic parameters of antigen binding, inverting the analyte and immobilized ligand. His₆-tagged VHH A1, A2 or A3 was immobilized in 10 mM sodium acetate, pH 5.5 on a CM5 chip (GE Healthcare) via amine coupling chemistry to 160 RU. The human FOLR1 recombinant protein (Sino Biological) was analyzed in a threefold serial dilution in HBS (38.5 nM-0.47 nM) with an analyte flow rate of 30 µl/min. The association phase took 180 s for every concentration and the dissociation phase 900 s. Regeneration was done by a single injection of 50 mM glycine-HCl, pH 2.5, 2 M MgCl2 for 30 s at 30 µl/min, followed by 120 s stabilization. Binding curves were fitted using a ‘1:1 (antigen:analyte)’ binding model in Biacore T200 evaluation software.

[8] = target: T3, human FOLR1 recombinant protein …; test: SPR (Biacore T200), human FOLR1 immobilized on CM5, His6-tagged VHH as analyte, 1:1 fit
Procedure: The kinetic parameters of antigen binding by purified VHHs were determined via surface plasmon resonance with a Biacore T200 instrument (GE Healthcare). The human FOLR1 recombinant protein (Sino Biological) was immobilized in 10 mM sodium acetate, pH 5.5 on a CM5 chip (GE Healthcare) via amine coupling chemistry to 500 RU. His₆-tagged VHHs were analyzed in a twofold serial dilution in HBS (125 nM-0.488 nM for VHHs A4 and A5; 10 nM-0.039 nM for VHHs A1, A2 and A3) with an analyte flow rate of 30 µl/min. The association phase took 180 s (A4-A5) or 450 s (A1-A3) and the dissociation phase 600 s (A4-A5) or 900 s (A1-A3). Regeneration was done by a single injection of 50 mM glycine-HCl, pH 2.5, 2 M MgCl₂ for 30 s at 30 µl/min, followed by 120 s stabilization. Binding curves were fitted using a ‘1:1 (antigen:analyte)’ binding model in Biacore T200 evaluation software.

[9] = target: T3, human FOLR1 recombinant protein …; test: SPR dual injection on immobilized human FOLR1, 250 nM; competitor (1st VHH, saturating) A1; by the legend the value is of the 2nd VHH
Procedure: as §2, §3

[10] = target: T3, human FOLR1 recombinant protein …; test: SPR dual injection on immobilized human FOLR1, 250 nM; competitor (1st VHH, saturating) A4; by the legend the value is of the 2nd VHH
Procedure: as §2, §3

[11] = target: T3, human FOLR1 recombinant protein …; test: SPR dual injection on immobilized human FOLR1, 250 nM; competitor (1st VHH, saturating) A3; by the legend the value is of the 2nd VHH
Procedure: as §2, §3

[12] = target: T4, human FOLR1 expressed on SKOV-3 ovarian carcinoma cells (human, UniProt P15328 25-234); test: cellular retention on SKOV-3 cells: 10 nM 131I-VHH 1 h at 4 C, then up to 24 h at 37 C; membrane-bound plus internalized fraction
T4 construct: Naturally expressed receptor on SKOV-3 cells; also called human FOLR1pos SKOV-3 cancer cells; human FOLR1-expressing cell line SKOV-3
Procedure: The in vitro cellular retention of the different His₆- and untagged ¹³¹I-labeled VHHs was assessed on the same cancer cells. In this particular case, human FOLR1^pos SKOV-3 cancer cells were incubated with 10 nM ¹³¹I-labelled VHHs for 1h at 4° C., after which the unbound fraction was collected. A 100-fold excess of the corresponding unlabeled VHH to assess non-specific binding. Next, the cells were incubated with fresh medium up to 24 h at 37° C., after which the dissociated fraction was collected. Afterwards, the cells were washed with 0.05 M glycine pH 2.8 to collect the membrane-bound fraction. Finally, cells were solubilized with 1 M NaOH at room temperature to collect the internalized fraction. The sum of the membrane-bound and internalized fractions corresponds to the total cell-associated fraction.

[13] = target: T4, human FOLR1 expressed on SKOV-3 ovarian …; test: saturation binding of 131I-labelled His6-tagged VHH on SKOV-3 cells (0-300 nM); non-specific binding by 100-fold unlabelled VHH
Procedure: In a first part, their in vitro behaviour was assessed by means of investigating their cellular binding and retention over time. The binding potential of the resulting radioconjugates was assessed to confirm that this was not affected by the introduction of ¹³¹I-SGMIB into the amino acid sequence of the different VHHs. To this, human FOLR1^pos SKOV-3 cancer cells were incubated with serial dilutions with concentrations ranging from 0 to 300 nM of the different ¹³¹I-labelled, His₆ tagged VHHs. A 100-fold excess of the corresponding unlabeled VHH was added in parallel to saturate the human FOLR1 receptors expressed on cancer cells, to assess non-specific binding.

[14] = target: T5, murine FOLR1, extracellular domain, recombinant (murine, UniProt P35846 25-232); test: ELISA, coated recombinant protein, HA-tagged VHH in bacterial extract
T5 construct: extracellular domain; Bought protein; also called mouse FOLR1
Procedure: as §1

[15] = target: T5, murine FOLR1, extracellular domain, …; test: ELISA; coated recombinant protein, HA-tagged VHH in bacterial extract, anti-HA detection; A405 antigen well / blank well
Procedure: as §1

T3 sequence (P15328 25-233): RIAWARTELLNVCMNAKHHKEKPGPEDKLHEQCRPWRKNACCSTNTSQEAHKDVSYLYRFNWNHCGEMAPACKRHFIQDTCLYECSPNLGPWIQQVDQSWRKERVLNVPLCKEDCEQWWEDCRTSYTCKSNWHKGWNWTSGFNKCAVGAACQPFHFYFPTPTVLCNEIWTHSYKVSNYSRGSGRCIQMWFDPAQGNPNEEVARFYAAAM
T1 sequence (P14207 17-228 limits assumed): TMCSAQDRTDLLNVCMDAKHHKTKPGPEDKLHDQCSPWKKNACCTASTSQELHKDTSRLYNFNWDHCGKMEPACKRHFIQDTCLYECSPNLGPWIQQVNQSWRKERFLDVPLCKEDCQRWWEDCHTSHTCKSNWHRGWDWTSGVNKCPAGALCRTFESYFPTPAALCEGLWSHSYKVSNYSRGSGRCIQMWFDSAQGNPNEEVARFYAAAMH
T2 sequence (P41439 23-245 limits assumed): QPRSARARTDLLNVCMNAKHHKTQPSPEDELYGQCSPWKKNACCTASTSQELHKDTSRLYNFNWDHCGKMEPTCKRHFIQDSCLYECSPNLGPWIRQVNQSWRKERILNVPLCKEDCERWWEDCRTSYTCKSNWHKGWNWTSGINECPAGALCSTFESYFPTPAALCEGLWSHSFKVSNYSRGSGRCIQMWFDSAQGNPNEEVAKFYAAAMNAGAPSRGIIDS
T4 sequence (P15328 25-234 limits assumed): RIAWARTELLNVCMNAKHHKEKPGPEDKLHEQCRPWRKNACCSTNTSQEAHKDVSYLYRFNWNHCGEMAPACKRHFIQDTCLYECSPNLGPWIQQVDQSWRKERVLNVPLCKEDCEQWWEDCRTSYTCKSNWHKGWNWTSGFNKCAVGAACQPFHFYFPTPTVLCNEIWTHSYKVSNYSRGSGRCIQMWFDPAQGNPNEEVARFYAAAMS
Sequence of human FOLR1 recombinant protein (extracellular domain of human folate receptor alpha) (human) (P15328 25-233): as the sequence (P15328 25-233) above
T5 sequence (P35846 25-232 limits assumed): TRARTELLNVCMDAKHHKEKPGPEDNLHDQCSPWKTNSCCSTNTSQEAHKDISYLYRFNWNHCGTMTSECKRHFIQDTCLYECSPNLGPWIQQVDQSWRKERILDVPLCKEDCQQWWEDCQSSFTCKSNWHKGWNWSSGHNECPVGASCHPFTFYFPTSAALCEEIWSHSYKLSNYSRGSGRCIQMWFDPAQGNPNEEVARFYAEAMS

B1: HA-tagged variant of VHH A2 (VHH)
VHH: QVQLQESGGGLVQAGGSLRLSCAADEMKFSNYDLAWYRRAPGKQRELAAIITSGGSTNYPDSVKGRFTISRDNAKNTVYLEMNSLKPEDTAVYYCNALRPWPQFSDYWGQGTQVTVSS
notes: Used as VHH-containing bacterial (periplasmic) extract in ELISA; also called A2 HA-tag
signal-to-background ratio [1]: > 20
binding result [2]: no binding
binding result [3]: no binding
signal-to-background ratio [4]: ~1
signal-to-background ratio [5]: ~1

B4: His6-tagged variant of VHH A3 (VHH)
VHH: DVQLVESGGGLVQAGGSLRLSCGVSGNMFSMNLMGWYRQPPGKERDWVAVITKDGSTNYADSVKGRFTISRDNAKNTVSLQMNSLKPEDTAVYYCNVQDGSGWIRAWGWDWGQGTQVTVSS
notes: Purified, unlabelled; also called A3 His6-tag
loss in response level of VHH 2 relative to VHH 2 injected alone [6]: -89%
Kd [7]: 1.9 nM
koff [7]: 0.00063 s⁻¹
kon [7]: 330000 M⁻¹ s⁻¹
Kd [8]: 0.92 nM
koff [8]: 0.0011 s⁻¹
kon [8]: 1.2e+06 M⁻¹ s⁻¹
loss in response level of VHH 2 relative to VHH 2 injected alone [9]: -97%
loss in response level of VHH 2 relative to VHH 2 injected alone [10]: -97%

B5: 131I-labeled His6-tagged VHH A3 (VHH)
VHH: B4 VHH
modifications: [131I]SGMIB conjugated to lysine side-chain amine groups
cell-associated fraction of initial bound activity after 24 h [12]: 20%
EC50 [13]: 4.5 nM

B7: HA-tagged variant of VHH A1 (VHH)
VHH: QVQLQESGGGLVQPGGSLRLSCAASESIFSRNHMSWYRQAPGKQRELAAIITSDGNTNYPDSVKGRFTISRDNAKNTVYLQMNSLKPEDTAVYYCNTFGRSVAGFYDYWGQGTQVTVSS
notes: Used as VHH-containing bacterial (periplasmic) extract in ELISA; also called A1 HA-tag
signal-to-background ratio [1]: > 20
binding result [2]: no binding
binding result [14]: no binding
binding result [3]: no binding
signal-to-background ratio [4]: ~1
signal-to-background ratio [15]: ~1
signal-to-background ratio [5]: ~1

B8: 131I-labeled His6-tagged VHH A1 (VHH)
VHH: B7 VHH with Q1D, Q5V
modifications: [131I]SGMIB conjugated to lysine side-chain amine groups
cell-associated fraction of initial bound activity after 24 h [12]: ~40%
EC50 [13]: 0.7 nM

The remaining lines, values ahead:

loss in response level of VHH 2 relative to VHH 2 injected alone [6]: -86%
Kd [7]: 1.5 nM
koff [7]: 0.00068 s⁻¹
kon [7]: 440000 M⁻¹ s⁻¹
Kd [8]: 0.24 nM
koff [8]: 0.00033 s⁻¹
kon [8]: 1.3e+06 M⁻¹ s⁻¹
loss in response level of VHH 2 relative to VHH 2 injected alone [9]: -96%
loss in response level of VHH 2 relative to VHH 2 injected alone [10]: -96%
loss in response level of VHH 2 relative to VHH 2 injected alone [11]: -99%
B2: His6-tagged variant of VHH A2 (VHH)
VHH: B1 VHH with Q1D, Q5V
notes: Purified, unlabelled; also called A2 His6-tag

cell-associated fraction of initial bound activity after 24 h [12]: ~60%
EC50 [13]: 1.1 nM
B3: 131I-labeled His6-tagged VHH A2 (VHH)
VHH: B1 VHH with Q1D, Q5V
modifications: [131I]SGMIB conjugated to lysine side-chain amine groups

cell-associated fraction of initial bound activity after 24 h [12]: 10%
EC50 [13]: 5.8 nM
B6: 131I-labeled His6-tagged VHH A4 (VHH)
VHH: DVQLVESGGGLARAGGSLRLSCAASGRAFSSTYAMGWFRQAPGKEREFVADINWSEGSPMYIDSVKDRFTISRDNARNSLYLQMNSLKSEDTAVYYCAARRFGQGYEYWGQGTQVTVSS
modifications: [131I]SGMIB conjugated to lysine side-chain amine groups
